Laboratory results: patent publication US20210238262A1

Biological target: ZIKV PR (Puerto Rican strain, PRVABC59) virus (Zika virus strain PRVABC59)
Experiment: cell-based or functional assay

Z004 (antibody)
micro-neutralization (MN50) in Vero cells, IC50: 1.4 ng/mL
